From patent US20260232802A1 (published 2026)

T1: Human Telomerase Reverse Transcriptase (hTERT) peptide on HLA-A*03:01 (human)
T1 peptide: SVLNYERARR

T2: Survivin (BIRC5) peptide on HLA-A*02:01 (human)
T2 peptide: LTLGEFLKL

T3: Survivin (BIRC5), modified form of the peptide peptide on HLA-A*02:01 (human)
T3 peptide: LMLGEFLKL

B1: hTERT #1 (TCR, V domains shown)
Valpha: GENVEQHPSTLSVQEGDSAVIKCTYSDSASNYFPWYKQELGKRPQLIIDIRSNVGEKKDQRIAVTLNKTAKHFSLHITETQPEDSAVYFCADWVDMRFGAGTRLTVKP
Vbeta: GAVVSQHPSWVICKSGTSVKIECRSLDFQATTMFWYRQFPKQSLMLMATSNEGSKATYEQGVEKDKFLINHASLTLSTLTVTSAHPEDSSFYICSAPLDRGSNQPQHFGDGTRLSIL
B2: Survivin TCR (TCR, V domains shown)
Valpha: SQKIEQNSEALNIQEGKTATLTCNYTNYSPAYLQWYRQDPGRGPVFLLLIRENEKEKRKERLKVTFDTTLKQSLFHITASQPADSATYLCALDRMDSSYKLIFGSGTRLLVRP
Vbeta: NAGVTQTPKFQVLKTGQSMTLQCAQDMNHEYMSWYRQDPGMGLRLIHYSVGAGITDQGEVPNGYNVSRSTTEDFPLRLLSAAPSQTSVYFCASSYDQDGEAFFGQGTRLTVV
B3: hTERT #3 (TCR, V domains shown)
Valpha: KDQVFQPSTVASSEGAVVEIFCNHSVSNAYNFFWYLHFPGCAPRLLVKGSKPSQQGRYNMTYERFSSSLLILQVREADAAVYYCAVETGGGATNKLIFGTGTLLAVQP
Vbeta: NAGVTQTPKFQVLKTGQSMTLQCAQDMNHNSMYWYRQDPGMGLRLIYYSASEGTTDKGEVPNGYNVSRLNKREFSLRLESAAPSQTSVYFCASSEFWLTQETQYFGPGTRLLVL
B4: hTERT #4 (TCR, V domains shown)
Valpha: GIQVEQSPPDLILQEGANSTLRCNFSDSVNNLQWFHQNPWGQLINLFYIPSGTKQNGRLSATTVATERYSLLYISSSQTTDSGVYFCAVSHGRGGATNKLIFGTGTLLAVQP
Vbeta: NAGVTQTPKFQVLKTGQSMTLQCAQDMNHNSMYWYRQDPGMGLRLIYYSASEGTTDKGEVPNGYNVSRLNKREFSLRLESAAPSQTSVYFCASDRVLGYEQYFGPGTRLTVT
B5: hTERT #2 (TCR, V domains shown)
Valpha: GQNIDQPTEMTATEGAIVQINCTYQTSGFNGLFWYQQHAGEAPTFLSYNVLDGLEEKGRFSSFLSRSKGYSYLLLKELQMKDSASYLCAVSRPNSGYSTLTFGKGTMLLVSP
Vbeta: AAGVIQSPRHLIKEKRETATLKCYPIPRHDTVYWYQQGPGQDPQFLISFYEKMQSDKGSIPDRFSAQQFSDYHSELNMSSLELGDSALYFCASSVRTPSGQETQYFGPGTRLLVL

Legend:
[1] = target: T1, Human Telomerase Reverse Transcriptase …; assay: multimer staining
[2] = target: T2, Survivin (BIRC5) peptide on HLA-A*02:01; assay: killing
Protocol: (A) Survivin-specific transgenic T cells were co-cultured with Survivin⁺ primary AML blasts expressing (target blasts) or not (control blasts) the HLA-A0201⁺ allele in 1:1 effector to target ratio. After 24 hours, elimination index was calculated as [1-(number of alive blasts cultured with edited T cells/number of alive blasts alone)]. (B) Survivin-specific transgenic T cells were co-cultured with Survivin⁺ primary AML blasts expressing (target blasts, upper) or not (control blasts, lower) the HLA-A0201⁺ allele in 1:1 effector to target ratio. Killing is represented as area covered (μm²) by cells undergoing apoptosis (caspase 3/7 activation) overtime. […] Data are presented as means±SD. ****P<0.0001, by Student t-test (A) or two-way ANOVA (B).
For killing assay cells were plated and kept at 37° C. and 5% CO2 after the addition of anti-CD28 monoclonal antibodies (1 μg/ml; BD biosciences) for 72 hours in case of co-culture with cell lines, and for 24 hours for co-cultures with primary AML blasts. […] Viable target cells were counted using counting beads (Flow-count fluorospheres, Beckman Coulter), according to manufacturer's instructions. Elimination index was calculated according to the formula: [1-(number of alive target cells in culture with effector T cells/number of alive target cells in control culture)]. […] Data were analyzed by FlowJo software version 10 (BD).

[3] = target: T3, Survivin (BIRC5), modified form of the …; assay: multimer staining

| Binder | binding result [1] | binding result [2] | binding result [3] |
| --- | --- | --- | --- |
| B1 | recognises | – | – |
| B2 | – | recognises | recognises |
| B3 | recognises | – | – |
| B4 | recognises | – | – |
| B5 | recognises | – | – |
